From the DeepSol protein solubility set

Assay: soluble on expression in E. coli; label from the status in PepcDB or PDB records

MAHHHHHHMSYLLHSSSYAAATAAAERDGPARGAGGGPLNVVLSRVRSLLHGEPSRVARATSIIDDGSSGSLKRAERHSGASSASRREVLLPLTHDSARVARVPEVSGFIEHGGGFAIPAAKASPRTAPTPVAPPTTNESPVHRPPSARPVDAARDASLYERAVDYTDLEEILRCPLPPVPGCPTPCAFGRHSAGLSSDGSVTAAATLSPPPAPSSARQPPLVFRCIAADSDTGISVYSTPAEDCPMHLMRAYAVLPCSPGDVLQYMDNDIRPRWDSHLRRSALLRELTPPEQTKAVERQYRLSTSIGTAGAAVSQRSPTSLSAQSQGALRQRASSSPRTTGAIHGGCGSAVVSGPATAAASSPTAFQYLPGQRRVAIHYLETRSPVPFVQDRDFEIVVAEEVRPDDTAYVKAFSTPLGYHMPLGPHQSRYVRAVVVLSGMVARPLDAARVEEVLPPVLLRHHRAAAQHGNIQVAGIATKKPSASATVCGDAAARAACVAAPHRYCVVEYVGLVHPMGLLPAVLVNMIISAQLNAMRKMQAFIMQHPMSTLRPRSATHAATGEATGQPLQELLVSLQSLSPSPRKSSRMGKSQESDAAGRTREVKPEATGASAASVSAPLAASPAPVWWRRQMHRFASNL
soluble on expression in E. coli: not soluble

MAHHHHHHMTFEFGEECNNLARAAHQTKNYGDAISLYDRALTMRREKYGPIHKKCAATLHNIGRVFIDMKEYGAAENAFTEAAAIYEQVEGDKSLEYAESLELLALCYTHLKFLDEAEKAFKDSIRIFRDQCYNYGNNSWLPDDKTPPAEPNKHPLSSAAHALADCAALFLFRRQEHQAVAFLEEALEIRRFLYSRHVKFRPMIAQTLNKLCELKKSLDDAVGAEMCINECLEICIETLGRDHPATAQATSSKAGLLAAKKQFRDALRLYEESTRTYAMALGKDAPLFGQELMKLGRCQELCNDVVNAEKTFRRGVEIITNGFGPNSLQLAEANTFYGSLLARRLDIDQAVGMFRDAIRIRKSVDKHDPQLAYLYQKIGDAYAMRREPHAEAYFLLAVDAFKQNATIEPLQRTYMTDVLDDLGLFYLDFQHYEKAEKCFKEALDTRIEMLGENHATVAYSYSNFALLYLQRQDYANCEKMAEAALDIYSKTARSNVLAQADVHTTLGQCYHQQNQFAKALEMHEKALNVRRTRGDTTETAVAESLNQIARVYITMKRYGKAYRHVKEARRLVWQFNVEITQPLRNEIVKTEQMIPPMEEWTNEERAEAQVMIGDGSSAGNGSAATTATGA
soluble on expression in E. coli: not soluble

NGNPIPMGYSQAVENNVQITNFALFSAAAIGVELCLFDEQNQETRLPMVRTENVWHLAVTGVKTGTEYAFRIHGEFANPQKLILDPYAKAVNGKPDLSSEESRSWFLLSDNRDNAHLAPRAVVIS
soluble on expression in E. coli: not soluble

MGHHHHHHSHMQEEEEESWSTSSDLTISISEDDLILESPEPQPNPGGKMEGEDGIEALKLIHAEQERVALSTEKNCILQTLSSPDSEKESSTNAPTREPGQTPDSDVPRAQVGQHVATLKEHDNSVKEEATALLRKALTEECGRRSAIHSSESSCSLPSILNDNSGIKEAKPAVWLNSVPTREQEVSSGCGDKSKKENVAADIPITETEAYQLLKKATLQDNTNQTENRFQKTDASVSHLSGLNIGSGAFETKTANKIASEASFSSSEGSPLSRHENKKKPVINLKSNALWDESDDSNSEIEAALRPRNHNTDDSDDFYD
soluble on expression in E. coli: soluble

SKEIDISCVKIEQVIGAGEFGEVCSGHLKLPGKREIFVAIKTLKSGYTEKQRRDFLSEASIMGQFDHPNVIHLEGVVTKSTPVMIITEFMENGSLDSFLRQNDGQFTVIQLVGMLRGIAAGMKYLADMNYVHRALAARNILVNSNLVCKVSDFGLSRFLEDDTSDPTYTSALGGKIPIRWTAPEAIQYRKFTSASDVWSYGIVMWEVMSYGERPYWDMTNQDVINAIEQDYRLPPPMDCPSALHQLMLDCWQKDRNHRPKFGQIVNTLDKMIRNPNSLKAMAPLSS
soluble on expression in E. coli: soluble

MGSDKIHHHHHHMRHENRVAWTEGMFLRVQHFQQSDRWTERLVRSVARSLTPYPWGILEIGLDRSALAIGQFALSGLRGMLPDGTPFDAPEDTDLPAALELDESVKNAVIYLALPARQPGKADMAQTGTSAVNSVRLVASPYEAPDANVETDFLAPIDVGRLNLKLLKTGDDLAGYELLGLARVVEVRSDKAVLLDPDFIPASLNCTASSRLHELMTELLGIVRHRAEAIAERIGDPTIRGTAEVGDYFLLQILNRADPLLKHALSNATRLHPIQFYEQCIQLAGELATFTMESKRATDFPAYRHDDLKATFGAVFEDLRTSLSSVLAQSAVAIELVERRHGVRVGTINDRSLLRDAGFVLAVRADMSAEDVRRTLPARIKVGPVERIAELVNVALPGIPVRPLPVLPRQLPYRAGTIYFELDTKTPLWKQLETSGAIALHLAGDFPGLELEMWALRE
soluble on expression in E. coli: not soluble

MFTIRKATSDDCKLINELANQVFPATYKEILSTEQLDYMMEWMYAPENIRKQMEEEGHVYFIAYQGDEPCGYVSVQPQDADVFHLQKIYVLPGFQGAHLGSKLFDHAVQYIKEIHPSPCLMELNVNRNNKALHFYEHKGMKKLREGDFPIGNGYYMNDYIMGLEL
soluble on expression in E. coli: not soluble

MSLQRVQIMGAGALGSLVGALIQLAGYDVIFVARGKQLEALKKGLRVSGLKNAELKVYCTSQPEDADITFVTVKAYDTETVAKKLAEVDAGVVCSLQNGVGNEEILAKYCRKVLGGVTTYGANLKDYGHVVYAGEGYTYVGEMDGRVSGEAEMVAEVLRDAGMRAEAVNDIEFRIWAKAVVNAAINPITAICRVKNGEVVRNPHLWEVARAVADEGRQVMARMGYEFDAASEVRKVAEMTAENRSSMLQDLERGKRTEVEFINGAIVKKGEEFGIDCAVNRTLLNLVRGVESGEGHHHHHH
soluble on expression in E. coli: soluble

MKKILDACCGSRMFWFDKQNDQVLFMDNRKHYEKLESGHIVAVNPNIVADFRKMPFDDNSFYHVVFDPPHLLRAGSNSWLAKKYGKLNEQTWKEDIQKGFSECMRVLKPNGTLVFKWNEDQIKLSEILSIIDYEPLYGNKRAKTHWLVFMKESEENESNGLEHHHHHH
soluble on expression in E. coli: not soluble

DNFNQQKKKFGGQDIFMTEEQKKYYNAMKKLGSKKPQKPIPRPANKFQGMVFD
soluble on expression in E. coli: soluble

GSDDLVGVSVRPKVPLRTMSYKLAIDMSHFIKEKGGLEGIYYSARRHRILDIYLEKEEGIIPDWQDYTSGPGIRYPKTFGWLWKLVPVNVSDEAQEDEEHYLMHPAQTSQWDDPWGEVLAWKFDPTLAYTYEAYVRYPEEFGS
soluble on expression in E. coli: soluble

MAVSLSKGGNVSLTKEAPGLTAVTVGLGWDVRTTTGTDFDLDASAIAVNPTGKVYSDAHFVFFNNKQTPDQTIVHTGDNRTGEGAGDDEAINVNLAGLPADVDKIVFPVSIYDAENRSQNFGQVRNAYIRIVNQAGGAEIARYDLSEDAATETAMVFGELYRNGAEWKFRAVGQGYASGLVGIAQDFGVNV
soluble on expression in E. coli: not soluble

MKQIFIGIIRFYQKFISPMTPPTCRFYPTCSHYGLEAFQKHGALKGFWLTCKRILKCHPFHPGGFDPVPDKKDDKVNSLEHHHHHH
soluble on expression in E. coli: not soluble

GMDVLQKEIDEVYATHPTAHEALDNGIVEQHQQFVRSLTEVNGGCAVISDLSNRKSYVTVHPWANFLGLTPEEAALSVIDSMDEDCIYRRIHPEDLVEKRLMEYKFFQKTFSMSPGERLKYRGRCRLRMMNEKGVYQYIDNLVQIMQNTPAGNVWLIFCLYSLSADQRPEQGIYATITQMERGEVETLSLSEEHRNILSEREKEILRCIRKGLSSKEIAATLYISVNTVNRHRQNILEKLSVGNSIEACRAAELMKLL
soluble on expression in E. coli: soluble

MSLMPLLDKLREQYGVGPVCSELHIAPSTYYHCQQQRHHPDKRSARAQHDDWLKREIQRVYDENHQVYGVRKVWRQLLREGIRVARCTVARLMAVMGLAGVLRGKKVRTTISRKAVAAGDRVNRQFVAERPDQLWVADFTYVSTWQGFVYVAFIIDVFAGYIVGWRVSSSMETTFVLDALEQALWARRPSGTIHHSDKGSQYVSLAYTERLKEAGLLASTGSTGDSYDNAMAESINGLYKAEVIHRKSWKNRAEVELATLTWVDWYNNRRLLGRLGHAPPAEAEKAYYASIGNDDLAAEGHHHHHH
soluble on expression in E. coli: not soluble

MHHHHHHMNPERSERIEIPVLPLRDVVVYPHMVIPLFVGREKSIRCLEAAMDHDKKIMLVAQKEASTDEPGVNDLFTVGTVASILQMLKLPDGTVKVLVEGLQRARISALSDNGEHFSAKAEYLE
soluble on expression in E. coli: soluble
